In patent US20260250410A1 (SICHUAN HUIYU PHARMACEUTICAL, published 2026):

T1: human CDCP1 on tumor cells (human, UniProt Q9H5V8 30-836)
T1 construct: whole, on cells; cell line is named under assay or readout
T1 sequence (looked up): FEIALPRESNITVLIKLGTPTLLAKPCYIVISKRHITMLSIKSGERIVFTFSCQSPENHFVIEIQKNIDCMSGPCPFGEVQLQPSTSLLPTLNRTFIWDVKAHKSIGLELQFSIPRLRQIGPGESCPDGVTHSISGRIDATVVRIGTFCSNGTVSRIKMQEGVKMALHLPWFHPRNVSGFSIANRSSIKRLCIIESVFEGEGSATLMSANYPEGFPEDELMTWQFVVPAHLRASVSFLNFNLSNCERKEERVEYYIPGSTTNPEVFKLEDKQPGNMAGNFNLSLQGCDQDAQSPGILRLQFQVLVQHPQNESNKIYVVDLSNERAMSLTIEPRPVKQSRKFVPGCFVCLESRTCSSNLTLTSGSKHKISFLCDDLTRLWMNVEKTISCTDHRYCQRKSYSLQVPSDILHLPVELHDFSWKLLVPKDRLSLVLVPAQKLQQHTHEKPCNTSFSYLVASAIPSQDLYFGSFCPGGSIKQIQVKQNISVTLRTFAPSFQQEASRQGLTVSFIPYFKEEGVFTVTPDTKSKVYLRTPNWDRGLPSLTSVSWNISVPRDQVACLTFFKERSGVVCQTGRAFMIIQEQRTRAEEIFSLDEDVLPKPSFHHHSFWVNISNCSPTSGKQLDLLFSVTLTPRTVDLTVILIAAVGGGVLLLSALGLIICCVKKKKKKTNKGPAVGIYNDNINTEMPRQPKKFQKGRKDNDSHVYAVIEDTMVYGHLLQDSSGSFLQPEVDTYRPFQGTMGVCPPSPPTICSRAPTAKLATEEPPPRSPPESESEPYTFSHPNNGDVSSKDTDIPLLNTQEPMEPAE

T2: HuCDCP1-B (human, UniProt Q9H5V8 343-667)
T2 construct: range 343-667; expressed in HEK-293T, purified by Fc/his tag; also called human CDCP1-B; membrane-proximal region of CDCP1; not shown: Fc or his tag
T2 sequence (looked up): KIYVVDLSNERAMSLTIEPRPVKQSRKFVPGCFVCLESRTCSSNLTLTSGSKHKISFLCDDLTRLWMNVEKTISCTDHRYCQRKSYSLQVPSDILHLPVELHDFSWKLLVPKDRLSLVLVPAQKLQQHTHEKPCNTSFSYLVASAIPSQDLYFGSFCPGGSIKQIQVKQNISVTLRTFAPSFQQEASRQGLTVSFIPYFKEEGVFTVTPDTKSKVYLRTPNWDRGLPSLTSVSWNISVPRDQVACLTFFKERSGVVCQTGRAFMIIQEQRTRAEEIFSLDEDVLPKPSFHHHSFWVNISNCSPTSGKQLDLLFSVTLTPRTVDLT


Molecular target: T1, human CDCP1 on tumor cells
Experiment: flow cytometry, MDA-MB-231 cells
Method: Referring to the method of Example 4, MDA-MB-231 cells were taken and subjected to digestion with 5 mM EDTA, 2×10⁴ tumor cells were added respectively per well, and 50 μL (PBS+2% FBS) were added; after blocking at room temperature with Fc blocker for 10 mins, an anti-CDCP1 humanized antibody at a final concentration of 200 nM was added. The obtained mixture was subjected to a 3-fold serial dilution across 8 concentration points, incubated at 4° C. for 30 mins, centrifuged and washed, and then a secondary antibody (PE anti-human IgG Fc Antibody, Biolegend, 410708) was added, then detection was performed using a flow cytometer. Geo-MFI (geometric mean fluorescence signal value) was used as the preliminary signal of antibody-cell binding, curve fitting was performed using graphpad, and the binding capacity of antibody to cells was calculated.

EC50 | Binder
0.38 nM | 1CP-124 (antibody, human IgG1, kappa, V domains shown, humanized 3C11, human IgG1 kappa) VH: QVQLVQSGAEVKKPGASVKVSCKASGYNFISYWLHWVRQAPGQGLEWMGGIYPGNTDTTYNQKFKGRVTMTRDTSTSTVYMELSSLRSEDTAVYYCIRYDYDRGMDYWGQGTLVTVSS VL: DIQMTQSPSSLSASVGDRVTITCRASEDIYYRLAWYQQKPGKAPKLLISGATALETGVPSRFSGSGSGKDYTFTISSLQPEDIATYYCQHYWNIPWTFGQGTKVEIKR
0.34 nM | 1CP-129 (antibody, human IgG1, kappa, V domains shown, humanized 3C11, human IgG1 kappa) VH: QVQLVQSGAEVKKPGASVKVSCKASGYNFISYWLHWVRQAPGQGLEWMGGIYPGNTDTTYNQKFKGRVTMTADTSTSTVYMELSSLRSEDTAVYYCIRYDYDRGMDYWGQGTLVTVSS VL: DIQMTQSPSSLSASVGDRVTITCRASEDIYYRLAWYQQKPGKAPKLLISGATALETGVPSRFSGSGSGKDYTLTISSLQPEDIATYYCQHYWNIPWTFGQGTKVEIKR
0.32 nM | 1CP-128 (antibody, human IgG1, kappa, V domains shown, humanized 3C11, human IgG1 kappa) VH: QVQLVQSGAEVKKPGASVKVSCKASGYNFISYWLHWVRQAPGQGLEWMGGIYPGNTDTTYNQKFKGRVTMTRDTSTSTVYMELSSLRSEDTAVYYCIRYDYDRGMDYWGQGTLVTVSS VL: DIQMTQSPSSLSASVGDRVTITCRASEDIYYRLAWYQQKPGKAPKLLISGATALETGVPSRFSGSGSGKDYTLTISSLQPEDIATYYCQHYWNIPWTFGQGTKVEIKR
0.95 nM | 1CP-125 (antibody, human IgG1, kappa, V domains shown, humanized 3C11, human IgG1 kappa) VH: QVQLVQSGAEVKKPGASVKVSCKASGYNFISYWLHWVRQAPGQGLEWMGGIYPGNTDTTYNQKFKGRVTMTADTSTSTVYMELSSLRSEDTAVYYCIRYDYDRGMDYWGQGTLVTVSS VL: DIQMTQSPSSLSASVGDRVTITCRASEDIYYRLAWYQQKPGKAPKLLISGATALETGVPSRFSGSGSGKDYTFTISSLQPEDIATYYCQHYWNIPWTFGQGTKVEIKR
2.82 nM | 1CP-152 (antibody, human IgG1, kappa, V domains shown, humanized 8C9, human IgG1 kappa) VH: EVQLVESGGGLVQPGRSLRLSCTTSGLTFTHYHMSWVRQAPGKGLEWVAIIRNKAYGYTTDYSASVRGRFTISRDDSKSILYLQMNSLKTEDTAVYYCVREGGYGYDGTFAYWGQGTLVTVSS VL: DIQMTQSPSSLSASVGDRVTITCRASESVDNYGISFMNWFQQKPGQAPKLLIYAASNQGSGVPSRFSGSGSGTDFTLTISSMQPEDFATYYCQQSKEVPRTFGGGTKVEIKR
2.5 nM | 1CP-157 (antibody, human IgG1, kappa, V domains shown, humanized 8C9, human IgG1 kappa) VH: EVQLVESGGGLVQPGRSLRLSCTTSGLTFTHYHMSWVRQAPGKGPEWVAIIRNKAYGYTTDYSASVRGRFTISRDDSKSILYLQMNSLKTEDTAVYYCVREGGYGYDGTFAYWGQGTLVTVSS VL: DIQMTQSPSSLSASVGDRVTITCRASESVDNYGISFMNWFQQKPGQPPKLLIYAASNQGSGVPSRFSGSGSGTDFTLTISSMQPEDFATYYCQQSKEVPRTFGGGTKVEIKR
1.3 nM | 1CP-117 (antibody, human IgG1, kappa, V domains shown, humanized 8E5, human IgG1 kappa) VH: QVQLVQSGSELKKPGASVKVSCKASGYTLTDFSMHWVRQAPGQGLEWMGWINTETGAPTYADDFKGRFVLSLDTSVSTAYLQISSLKAEDTAVYYCSRGRDYDPHFDYWGQGTLVTVSS VL: EIVLTQSPATLSLSPGERATLSCRASQSISDFLHWYQQKPGQSPRLLIKYASQSISGIPARFSGSGSGSDFTLTISSVEPEDFAVYYCQSAHSFPYTFGQGTKLEIKR

Binder | EC50
1CP-121 (antibody, human IgG1, kappa, V domains shown, humanized 8E5, human IgG1 kappa) VH: QVQLVQSGSELKKPGASVKVSCKASGYTLTDFSMHWVRQAPGQGLEWMGWINTETGAPTYADDFKGRFVLSLDTSVSTAYLQISSLKAEDTAVYYCSRGRDYDPHFDYWGQGTLVTVSS VL: EIVLTQSPATLSLSPGERATLSCRASQSISDFLHWYQQKSGQSPRLLIKYASQSISGIPARFSGSGSGSDFTLTISSVEPEDFAVYYCQSAHSFPYTFGQGTKLEIKR | 1.37 nM

Molecular target: T2, HuCDCP1-B
Experiment: SPR (Caterra or Biacore), antigen immobilized

EC50 | Binder
1.62 nM | 12E6 (antibody, V domains shown, murine hybridoma mAb) VH: EVQLKESGPGILQPSQTLSLTCSFSGFSLSTSGMGVGWIRQPSGKGLEWLAHIWWDDVKLYNPALKSRLTISKETSNNQVFLKIASVDAADTATYYCARIDHGYGSNYWDFDVWGAGTTVTVSS VL: DIVMTQAAPSVPVTPGGSVSISCRSTKSLLHSDGKTYLYWFLQRPGQSPQLLIYRMSNLASGVPDRFSGSGSGTAFTLRISRVEAEDVGVYYCMQHLEYPFTFGSGTKLEIK
3.78 nM | 3C11 (antibody, V domains shown, murine hybridoma mAb) VH: EVQLQQSGTVLARPGASVKMSCKASGYNFISYWLHWIKQRPGQGLEWIGGIYPGNTDTTYNQKFKGKAKVTAVTSATTAYMELSSLTNEDSAVYYCIRYDYDRGMDYWGQGTTVTVSS VL: DIQMTQSPSSFSVSLGDRVTITCRASEDIYYRLAWYQQKPGNAPRLLISGATALETGVPSRFSGSGSGKDYTLSITSLQTEDVATYYCQHYWNIPWTFGGGTKLEIK
